Laboratory results taken from US20260049134A1 (UNIVERSITY OF FLORIDA RESEARCH FOUNDATION, published 2026).

T1: CADM1, endogenous in H929 multiple myeloma cells (human, UniProt Q9BY67 45-442)
T1 construct: Native protein on H929 cells (flow cytometry, siRNA knockdown) and in H929 lysates (IP/MS); RPMI-8226 cells were used for sorting with HW-97; also called IGSF4A
T1 sequence: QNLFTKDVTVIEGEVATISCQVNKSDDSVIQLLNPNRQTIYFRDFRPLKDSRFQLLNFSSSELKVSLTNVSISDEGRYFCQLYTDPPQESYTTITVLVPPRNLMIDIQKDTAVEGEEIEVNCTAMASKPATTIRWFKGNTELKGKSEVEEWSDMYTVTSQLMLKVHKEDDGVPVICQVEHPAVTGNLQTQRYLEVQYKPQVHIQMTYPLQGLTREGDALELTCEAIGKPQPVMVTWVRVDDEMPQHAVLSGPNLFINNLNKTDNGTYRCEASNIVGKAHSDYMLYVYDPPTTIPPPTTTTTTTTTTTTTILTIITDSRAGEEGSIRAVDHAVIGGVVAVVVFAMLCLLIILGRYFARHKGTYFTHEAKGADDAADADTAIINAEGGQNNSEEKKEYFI

T2: GARS, endogenous in H929 multiple myeloma cells (human, UniProt P41250 37-739, limits assumed)
T2 construct: Native protein pulled down from H929 lysates; also called Glycyl-tRNA synthetase; GlyRS
T2 sequence: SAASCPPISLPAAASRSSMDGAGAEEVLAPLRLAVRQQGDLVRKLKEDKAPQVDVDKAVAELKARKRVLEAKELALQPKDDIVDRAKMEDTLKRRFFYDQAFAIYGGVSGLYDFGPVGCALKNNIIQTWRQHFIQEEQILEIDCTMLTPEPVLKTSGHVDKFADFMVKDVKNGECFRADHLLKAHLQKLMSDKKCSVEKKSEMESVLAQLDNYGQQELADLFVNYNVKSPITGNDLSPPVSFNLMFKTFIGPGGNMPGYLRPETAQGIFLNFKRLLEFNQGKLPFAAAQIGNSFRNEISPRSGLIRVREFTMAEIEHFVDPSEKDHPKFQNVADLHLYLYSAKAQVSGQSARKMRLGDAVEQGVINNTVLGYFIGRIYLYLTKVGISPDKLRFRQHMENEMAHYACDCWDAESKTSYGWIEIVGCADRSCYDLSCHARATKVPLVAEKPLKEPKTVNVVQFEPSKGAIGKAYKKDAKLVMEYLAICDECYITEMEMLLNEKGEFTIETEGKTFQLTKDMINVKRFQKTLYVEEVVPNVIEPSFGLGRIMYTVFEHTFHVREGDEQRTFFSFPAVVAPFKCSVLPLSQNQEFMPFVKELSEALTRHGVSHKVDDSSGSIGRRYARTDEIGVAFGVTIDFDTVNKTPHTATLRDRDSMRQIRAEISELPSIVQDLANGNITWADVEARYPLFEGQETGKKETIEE


Key:
[1] = biological target: T3, ICAM1, endogenous in H929 multiple myeloma cells (human, UniProt P05362 28-532); assay: flow cytometry, H929 + NT Green siRNA; None 1.35
T3 construct: Native protein on H929 cells (flow cytometry, siRNA knockdown) and in H929 lysates (IP/MS); also called CD54
T3 sequence (P05362 28-532 limits assumed): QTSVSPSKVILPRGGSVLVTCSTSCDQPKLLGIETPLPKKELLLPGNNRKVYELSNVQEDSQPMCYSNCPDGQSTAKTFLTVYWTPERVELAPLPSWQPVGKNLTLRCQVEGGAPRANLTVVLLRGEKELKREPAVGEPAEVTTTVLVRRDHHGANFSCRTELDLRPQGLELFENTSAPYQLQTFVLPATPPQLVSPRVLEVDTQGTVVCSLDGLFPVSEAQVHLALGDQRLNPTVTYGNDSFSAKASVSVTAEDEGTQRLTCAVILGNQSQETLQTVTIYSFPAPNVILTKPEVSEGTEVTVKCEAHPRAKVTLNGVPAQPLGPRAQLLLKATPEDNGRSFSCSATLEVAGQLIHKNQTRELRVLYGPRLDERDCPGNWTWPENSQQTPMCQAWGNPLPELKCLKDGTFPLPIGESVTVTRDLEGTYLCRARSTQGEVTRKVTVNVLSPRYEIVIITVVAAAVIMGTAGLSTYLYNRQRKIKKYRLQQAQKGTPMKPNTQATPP

[2] = biological target: T1, CADM1, endogenous in H929 multiple …; assay: flow cytometry, H929 + PTPRG siRNA; None 2.13
[3] = biological target: T2, GARS, endogenous in H929 multiple …; assay: IP from H929 cell lysate, LC-MS/MS, spectral counts
Procedure: Immunoprecipitation. […] After 30 min of rocking at 4° C., and lysates were centrifuged at 18,400×g for 20 min at 4° C. Subsequently, 1-mL aliquots of the supernatants were pre-cleared twice with Protein G agarose (Thermo Fisher Scientific) by adding 50 μL of 50% resin slurry and incubating 30 min with end-over-end tumbling at 4° C., followed by centrifugation at 16,000×g for 5 min and pooling of the pre-cleared cell lysate aliquots. Representative mAbs from each cluster were immobilized on Protein G agarose at a ratio of 25 μg IgG1 per 30 μL of 50% slurry, diluted to 500 μL with Dulbecco's PBS (DPBS) and incubated for 1 h at 4° C. with tumbling, followed by centrifugation at 5,000×g for 30 s and 2 washes with lysis buffer. After the last wash, the ˜15 μL of IgG1-coated resin was blocked with 10 μL of 10% BSA (MilliporeSigma). Next, 1 mL of the pooled pre-cleared cell lysate was added to the IgG1-coated resin and incubated for 3 h at 4° C. with tumbling. […] Finally, 16 μL of the eluate (˜20%) was analyzed on a reducing SDS-PAGE gel stained with SYPRO Ruby dye (Bio-Rad Laboratories), while the rest was stored at −80° C. prior to LC-MS/MS analysis. […]

Binder | Cells stained (%) [1] | Cells stained (%) [2] | binding result [3]
HW-97 chimeric rabbit-human IgG1 LA/LA/PG (antibody, V domains shown, Fc-silenced (L234A/L235A/P329G) IgG1, lambda; Alexa Fluor 647-labeled in single-step flow cytometry; Prototype of cluster C-97) VH: QKQLVESGGRLVTPGTPLTLTCTVTGIDLSSHGMSWVRQAPGKGLEWIGVIYPSGSTWYASWARGRFTISKTSTTVDLKMTSLTTEDTATHFCARGDVGGADNNIWGPGTLVTVSS VL: SFVLTQPASVQVDLGQTVSLTCTAETLSRSYASWYQQKPGQAPVLLIYRDTSRPSGVPDRFSGSSSGNTATLTISGAQAGDEADYYCATSDGSGSSYQYVFGGGTQLTVTG |  | 94.8% | 
HW-113 chimeric rabbit-human IgG1 LA/LA/PG (antibody, V domains shown, Fc-silenced (L234A/L235A/P329G) IgG1, lambda; Alexa Fluor 647-labeled in single-step flow cytometry) VH: QKQLVESGGGLVQPGGSLTLTCTVSGFSLNKYYMGWFRQAPGKGLEWIGVISRSGDTYYSSWAKGRFTISKASTTVDLRITSPTTEDTATYFCARDASSPGFHGDRLDLWGQGTLVTVSS VL: SFVLTQPASVQVNLGQTVSLTCTADTLSRSYASWYQQKPGQAPVLLIYRDTSRPSGVPDRFSGSSSGNTATLTISGAQAGDEADYYCATSDGIGSNYLWVFGGGTQLTVTG | 99.8% |  | no binding

Other lines, results leading:

Cells stained (%) [1] | Cells stained (%) [2] | binding result [3] | Binder
1.86% |  |  | TH9-0022 (antibody, human IgG1, kappa, L234A L235A, V domains shown, also called TH9-022; negative control) VH: QSLEESGGRLVTPGTPLTLTCTVSGFSLSSYAMNWVRQAPGKGLEWIGIINSYGSTYYASWAKGRFTISKTSTTVDLKITSPTTEDTATYFCARVTYDSYGYGYAPYGMDLWGPGTLVTVSS VL: LVMTQTPSSTSNAVGGTVTIKCQASQSIGNVLAWYQQKPGQPPKLLIYAASTLASGVPSRVGGSRSGTEYTLTISGVQREDAATYYCLGSDSDSDIAFGGGTELEILR
 | 85.3% | no binding | HW-101 chimeric rabbit-human IgG1 LA/LA/PG (antibody, V domains shown, Fc-silenced (L234A/L235A/P329G) IgG1, lambda; Alexa Fluor 647-labeled in single-step flow cytometry; Cluster C-97) VH: QEQLVESGGRLVTPGTPLTLTCKASGFSLGKYDMSWVRQAPGKGLEWIGTIYAGSGSTWYASWAKGRFTISKTSTTVDLKMTSLTTEDTATYFCARDFLGVNSIWGPGTLVTISS VL: SFVLTQPASVQVNLGQTVSLTCTADTLSRSYASWYQQKPDQAPVLLIHRDTSRPSGVPDRFSGSNSGNTATLTISGAQAGDEADYYCATSDGSGSNFHFVFGGGTQLTVTG
